Measurements as given in patent US11510990B2, “Conjugates of fusion proteins of GLP-1 and FGF21” (BEIJING QL BIOPHARMACEUTICAL CO., LTD., priority 2020, dated 2022).
Changes are numbered by the printed parent chain.

B1: Compound 14: GLP-1/FGF21 fusion polypeptide SEQ ID NO: 14 conjugated with Moiety A at 222K (conjugate)
chain: HGEGTFTSDVSSYLEEQAAREFIAWLVRGGGGQEPGQEPGQEPGQEPGQEPHPIPDSSPLLQFGGQVRQRYLYTDDAQQTEAHLEIREDGTVGGAADQSPESLLQLRALRPGVIQILGVRTSRFLCQRPDGALYGSLHFDPEACSFRELLLEDGYNVYQSEAHGLPLHLPGQRSPHRDPAPRGPARFLPLPGLPPALPEPPGILAPQPPDVGSSDPLSLVGKSQGRSPSYES
modifications: Moiety A conjugated at K222
B2: Compound 5: GLP-1/FGF21 fusion polypeptide SEQ ID NO: 5 conjugated with Moiety A at 51K and 222K (conjugate)
chain: HGEGTFTSDVSSYLEEQAAREFIAWLVRGGGGGGGSGGGGSGGGGSGGGGKHPIPDSSPLLQFGGQVRQRYLYTDDAQQTEAHLEIREDGTVGGAADQSPESLLQLRALRPGVIQILGVRTSRFLCQRPDGALYGSLHFDPEACSFRELLLEDGYNVYQSEAHGLPLHLPGQRSPHRDPAPRGPARFLPLPGLPPALPEPPGILAPQPPDVGSSDPLSLVGKSQGRSPSYAS
modifications: Moiety A conjugated at K51 and K222
B3: Compound 13: GLP-1/FGF21 fusion polypeptide SEQ ID NO: 13 conjugated with Moiety A at 222K (conjugate)
chain: B1 chain with Q33A, E34Q, Q37A, E38Q, Q41A, E42Q, Q45A, E46Q, Q49A, E50Q
modifications: Moiety A conjugated at K222
B4: Compound 12: GLP-1/FGF21 fusion polypeptide SEQ ID NO: 12 conjugated with Moiety A at 225K (conjugate)
chain: B2 chain with K51S, K222G, G225K, A231E
modifications: Moiety A conjugated at K225
B5: Compound 11: GLP-1/FGF21 fusion polypeptide SEQ ID NO: 11 conjugated with Moiety A at 221K (conjugate)
chain: B2 chain with K51S, G221K, K222P, A231E
modifications: Moiety A conjugated at K221
B6: Compound 2: GLP-1/FGF21 fusion polypeptide SEQ ID NO: 2 conjugated with Moiety A at 20K and 231K (conjugate)
chain: B2 chain with R20K, K51S, K222G, A231K
modifications: Moiety A conjugated at K20 and K231

Test: Body weight reduction in C57BL/6 mice, daily subcutaneous dosing
Assay type: in vivo
Conditions: 30 nmol/kg
Method: FIGS. 1A-1F show in vivo activities of fusion protein conjugates. […] Body weight was measured daily. […] Compared to Vehicle control: ***, p<0.001. All data are expressed as mean values and standard error (SEM).
10 week old male C57BL/6 mice were injected everyday subcutaneously with 30 nmol/kg exemplary fusion protein conjugates for 10 or 14 days (n=5). Body weight was daily monitored for each individual animal. Day 1 and Day 10 (or Day 14) are first day and last day of molecule dosage. % BW loss=100*(BW on Day n-BW on Day 1)/(BW on Day 1). Data are indicated as mean values and standard error (SEM) or pooled values. Statistical analysis was performed by One-way ANOVA. Body weight reduction on Day 11 in Table 5 is calculated by −1*(% BW loss−% BW loss of vehicle group).

Molecule	BW reduction efficacy compared to Compounds 10 and 13
B1	lower BW reduction efficacy

Same assay, conditions: 30 nmol/kg, 10-day dosing period (FIGS. 1A-1B)

Molecule	BW reduction compared to Semaglutide
B2	much more enhanced and persistent BW reduction

Same assay, conditions: male C57BL/6 mice, 30 nmol/kg subcutaneously everyday, Day 11

Molecule	Body weight reduction at 30 nmol/kg (% reduction compared to vehicle)(Day11) [%]
Semaglutide [reference compound]	6.4
B1	9.8
B3	23.6
B2	14.4
B4	22.8
B5	10.4
B6	18.2
